Source: paper doi:10.1101/2025.11.18.689095 (bioRxiv, 2025)
Where a chain is given by its changes, count along the chain named. Names may count otherwise.

B1: K118A: K118A mutation in hTom70 (protein)
chain: MNSLDRAQAAANKGNKYFKAGKYEQAIQCYTEAISLCPTEKNVDLSTFYQNRAAAFEQLQKWKEVAQDCTKAVELNPKYVKALFRRAKAHEKLDNKKECLEDVTAVCILEGFQNQQSMLLADKVLKLLGKEKAKEKYKNREPLMPSPQFIKSYFSSFTDDIISQPMLKGEKSDEDKDKEGEALEVKENSGYLKAKQYMEEENYDKIISECSKEIDAEGKYMAEALLLRATFYLLIGNANAAKPDLDKVISLKEANVKLRANALIKRGSMYMQQQQPLLSTQDFNMAADIDPQNADVYHHRGQLKILLDQVEEAVADFDECIRLRPESALAQAQKCFALYRQAYTGNNSSQIQAAMKGFEEVIKKFPRCAEGYALYAQALTDQQQFGKADEMYDKCIDLEPDNATTYVHKGLLQLQWKQDLDRGLELISKAIEIDNKCDFAYETMGTIEVQRGNMEKAIDMFNKAINLAKSEMEMAHLYSLCDAAHAQTEVAKKYGLKPPTL
B2: K188A: K188A mutation in Tom70 (protein)
chain: B1 chain with A11K, K81A
B3: N158A: N158A mutation in hTom70 (protein)
chain: B1 chain with A11K, N51A
B4: R192A: R192A mutation in Tom70 (protein)
chain: B1 chain with A11K, R85A

Tested on: biotinylated full-length Hsp90
Experiment: BLI, Tom70 mutants binding to biotinylated full-length Hsp90
Design: species or system human
Settings: biotinylated full-length Hsp90 immobilized, Tom70 40 µM, Fig S7B
Procedure: Biotinylated Hsp90 proteins were immobilized onto streptavidin biosensor probes, and experiments were conducted in buffer containing 20 mM sodium phosphate (pH 7), 150 mM NaCl, 1% BSA, 0.6 M sucrose, and 1 mM TCEP[68]. […] To combat heterogenous binding, dissociation curves were fit with a two-phase exponential curve. Due to the association rate (kon) being too rapid to quantify, kon values were indirectly estimated by combining koff values obtained from BLI with KD values determined by ITC ( kon=koffBLI/KDITC ). All data are corrected for non-specific binding. Error is given as the standard deviation of at least two measurements.
Supplementary Figure 7: (A) Interacting residues between Tom70 and Hsp90EEVD peptide. (B) BLI sensorgrams of biotinylated full-length Hsp90 assayed to Tom70 mutants. WT refers to “wild-type” Tom70. All Tom70 concentrations are at 40 µM. Dotted line demarcates the beginning of the dissociation phase. (C-D) ITC thermograms and isotherms for the interaction of Tom70 to an (C) amidated Hsp90EEVD peptide and a (D) Hsp90EQVD peptide. N.D. stands for “not-detected” due to the lack of sufficient heat generated.
(1 picture or pasted object on this page, not shown here)

Molecule | binding of Tom70 mutant to Hsp90
B1 | eliminated binding
B2 | abrogated binding
B3 | eliminated binding
B4 | abrogated binding
